# Laboratory results: patent US20240327522A1 (Genentech, published 2024)
# T1: recombinant human αvβ8 protein (PARS-17102) (human)
# T1 construct: also called hu.aVb8.17102; not shown: C-terminal acid/basic coils and any purification tags
# T1 alpha: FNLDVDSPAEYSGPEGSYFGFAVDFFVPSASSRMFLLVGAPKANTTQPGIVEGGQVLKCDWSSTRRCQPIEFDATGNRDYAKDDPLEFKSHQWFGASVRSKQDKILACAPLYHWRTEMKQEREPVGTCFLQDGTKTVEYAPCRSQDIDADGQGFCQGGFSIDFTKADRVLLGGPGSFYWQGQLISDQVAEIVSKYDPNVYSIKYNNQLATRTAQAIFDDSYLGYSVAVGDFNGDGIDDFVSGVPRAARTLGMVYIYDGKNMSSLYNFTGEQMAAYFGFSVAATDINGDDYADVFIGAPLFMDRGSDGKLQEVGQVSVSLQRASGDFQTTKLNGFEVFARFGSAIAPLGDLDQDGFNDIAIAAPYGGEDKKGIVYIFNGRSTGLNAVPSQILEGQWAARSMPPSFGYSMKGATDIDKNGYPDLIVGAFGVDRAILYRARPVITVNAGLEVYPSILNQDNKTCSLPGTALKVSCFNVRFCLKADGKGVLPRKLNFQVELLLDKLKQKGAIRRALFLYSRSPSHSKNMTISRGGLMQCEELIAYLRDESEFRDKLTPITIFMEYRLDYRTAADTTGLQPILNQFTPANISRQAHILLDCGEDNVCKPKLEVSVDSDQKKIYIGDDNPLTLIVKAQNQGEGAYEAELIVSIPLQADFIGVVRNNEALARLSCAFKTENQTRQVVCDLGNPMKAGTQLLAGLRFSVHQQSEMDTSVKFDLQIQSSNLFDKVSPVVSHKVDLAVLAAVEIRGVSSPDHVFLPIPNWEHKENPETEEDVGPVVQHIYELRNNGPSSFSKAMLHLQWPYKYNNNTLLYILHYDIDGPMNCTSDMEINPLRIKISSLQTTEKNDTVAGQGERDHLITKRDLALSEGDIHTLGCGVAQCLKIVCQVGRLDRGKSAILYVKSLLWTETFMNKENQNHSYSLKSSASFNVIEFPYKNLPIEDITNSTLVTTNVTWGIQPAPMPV
# T1 beta: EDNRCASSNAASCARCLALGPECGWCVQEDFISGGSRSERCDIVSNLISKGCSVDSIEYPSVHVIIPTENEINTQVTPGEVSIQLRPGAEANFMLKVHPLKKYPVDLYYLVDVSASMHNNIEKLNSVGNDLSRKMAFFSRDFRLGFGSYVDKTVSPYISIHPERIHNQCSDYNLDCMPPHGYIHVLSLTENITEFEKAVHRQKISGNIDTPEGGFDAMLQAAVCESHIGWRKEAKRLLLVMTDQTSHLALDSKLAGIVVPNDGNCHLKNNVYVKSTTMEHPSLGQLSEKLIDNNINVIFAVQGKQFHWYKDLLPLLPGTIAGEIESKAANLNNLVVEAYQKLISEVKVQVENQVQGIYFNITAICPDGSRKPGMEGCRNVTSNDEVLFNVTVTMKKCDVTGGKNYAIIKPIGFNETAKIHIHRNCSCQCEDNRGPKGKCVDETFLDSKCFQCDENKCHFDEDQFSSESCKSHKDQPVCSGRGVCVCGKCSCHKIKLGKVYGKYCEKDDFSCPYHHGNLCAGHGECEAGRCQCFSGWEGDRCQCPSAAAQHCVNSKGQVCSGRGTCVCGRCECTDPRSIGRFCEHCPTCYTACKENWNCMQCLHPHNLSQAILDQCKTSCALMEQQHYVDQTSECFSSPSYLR
# Experiments:
# Assay in all cases: SPR, Biacore T200, antibody captured on Protein A chip, 3-fold analyte series 0-100 nM, 37 C, 1:1 model; average ± as printed
# [1] = molecular target: T1, recombinant human αvβ8 protein …
# Description: (§1) The ability of the anti-αVP8-65 to bind to different αVβ8 proteins was assessed using SPR measurements (Karlsson et al. 1991) on a Biacore™ T200 (Cytiva Life Sciences; Marlborough, MA) instrument (Safsten et al. 2006). anti-αV08-65 was first captured on a Biacore™ Protein A biosensor chip (Cytiva Life Sciences) to achieve approximately 60 response units. Binding measurements were performed using a running buffer composed of 10 mM HEPES (pH 7.4), 150 mM NaCl, 0.5 mM CaCl₂), 0.5 mM MgCl₂, and 0.005% Surfactant P20 (Cytiva Life Sciences). A 3-fold dilution series of the analyte proteins (range, 0-100 nM in running buffer) was injected into the Biacore™ T200. All injections were performed over 180 seconds, with a dissociation time of 1200 seconds, at a flow rate of 100 μL/minute and a temperature of 37° C. Between sample injections, 10 mM glycine (pH 1.5) was injected to regenerate the sensor chip (twice, over 30 seconds at 10 μL/minute for each injection). To determine the binding kinetics and affinity constants of anti-αVP8-65 to the various species of the αVβ8 protein, the signal from the reference flow cell (FC1, with only protein A on the surface) was “double referenced” by subtracting the signal observed after injecting the sample over FC1, followed by subtracting the signal observed after injecting only running buffer. The kinetic constants were calculated using non-linear regression fitting of the data, according to a 1:1 Langmuir binding model, using Biacore™ Evaluation Software (Cytiva Life Sciences) for anti-αVP8-65 binding to recombinant human, cynomolgus monkey, mouse, and rat αVβ8 proteins.
# [2] = molecular target: T2, recombinant mouse αvβ8 protein (PARS-17103) (murine, UniProt P43406 31-988; Q0VBD0 43-681, limits assumed)
# T2 construct: Made in house; also called mu.aVb8.17103
# T2 sequence (P43406 31-988 limits assumed, chain 1 of 2): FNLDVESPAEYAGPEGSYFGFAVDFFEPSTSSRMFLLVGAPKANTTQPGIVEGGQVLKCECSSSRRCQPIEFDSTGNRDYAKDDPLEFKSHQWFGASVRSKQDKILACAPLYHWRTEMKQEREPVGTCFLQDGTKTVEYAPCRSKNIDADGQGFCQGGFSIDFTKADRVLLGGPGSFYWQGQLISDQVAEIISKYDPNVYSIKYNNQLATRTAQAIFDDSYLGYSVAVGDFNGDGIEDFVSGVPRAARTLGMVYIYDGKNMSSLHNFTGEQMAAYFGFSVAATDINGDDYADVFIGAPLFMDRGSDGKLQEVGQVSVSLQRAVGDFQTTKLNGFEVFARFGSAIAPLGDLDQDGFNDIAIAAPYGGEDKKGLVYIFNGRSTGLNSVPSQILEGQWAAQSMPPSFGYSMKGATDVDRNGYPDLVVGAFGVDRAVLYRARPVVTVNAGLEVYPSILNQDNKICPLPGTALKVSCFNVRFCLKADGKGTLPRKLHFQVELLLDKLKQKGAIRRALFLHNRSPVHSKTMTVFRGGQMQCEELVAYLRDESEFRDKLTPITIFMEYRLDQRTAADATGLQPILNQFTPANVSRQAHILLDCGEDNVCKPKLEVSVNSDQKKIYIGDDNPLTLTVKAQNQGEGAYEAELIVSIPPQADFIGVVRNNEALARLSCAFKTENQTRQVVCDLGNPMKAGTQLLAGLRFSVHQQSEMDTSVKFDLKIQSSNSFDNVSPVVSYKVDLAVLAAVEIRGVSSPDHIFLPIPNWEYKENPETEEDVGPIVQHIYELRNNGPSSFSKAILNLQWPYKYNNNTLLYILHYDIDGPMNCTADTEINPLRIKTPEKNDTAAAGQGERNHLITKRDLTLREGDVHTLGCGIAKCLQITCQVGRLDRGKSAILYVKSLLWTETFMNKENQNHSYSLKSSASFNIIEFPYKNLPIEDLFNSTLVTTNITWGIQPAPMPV
# T2 sequence (Q0VBD0 43-681 limits assumed, chain 2 of 2): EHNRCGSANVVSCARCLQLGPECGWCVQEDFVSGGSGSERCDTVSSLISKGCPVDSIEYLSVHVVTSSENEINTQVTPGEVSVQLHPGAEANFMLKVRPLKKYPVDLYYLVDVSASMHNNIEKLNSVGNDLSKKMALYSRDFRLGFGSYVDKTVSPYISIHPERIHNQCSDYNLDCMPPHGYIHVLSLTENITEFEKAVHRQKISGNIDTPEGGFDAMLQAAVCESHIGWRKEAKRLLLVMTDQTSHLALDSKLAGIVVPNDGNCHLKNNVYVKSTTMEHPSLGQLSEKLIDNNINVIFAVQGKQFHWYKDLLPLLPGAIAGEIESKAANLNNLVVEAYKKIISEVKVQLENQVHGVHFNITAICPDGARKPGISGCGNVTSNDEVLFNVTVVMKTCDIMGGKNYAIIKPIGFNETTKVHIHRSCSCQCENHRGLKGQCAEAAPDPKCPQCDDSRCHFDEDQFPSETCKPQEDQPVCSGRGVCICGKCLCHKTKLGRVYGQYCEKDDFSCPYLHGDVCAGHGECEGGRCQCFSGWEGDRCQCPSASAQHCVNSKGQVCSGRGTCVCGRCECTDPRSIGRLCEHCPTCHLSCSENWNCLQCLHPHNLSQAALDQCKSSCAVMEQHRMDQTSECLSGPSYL
# Description: as §1
# [3] = molecular target: T3, recombinant cynomolgus monkey αvβ8 protein (PARS-19393) (cynomolgus monkey, UniProt A0A2K5WCD3 31-992; G7P0S0 43-684)
# T3 construct: also called cyno.aVb8-19393; cyno.aVb8
# Description: as §1
# [4] = molecular target: T4, recombinant rat αvβ8 protein (PARS-22180) (rat, UniProt F1LZX9 31-987; A0A0G2JVU1 43-682)
# T4 construct: also called rat.aVb8
# Description: as §1
binder,measurement,setting,value
"Hu.aVb8-65.H15L2 (aVb8-65.H15L2.hIgG1.LALAPG) (antibody, V domains shown, Human IgG1 LALAPG; also called PARS-20475-65 (IH) aVb8-65.H15L2.hIgG1.LALAPG; humanized αvβ8-65) VH: EVQLLESGGGLVQPGGSLRLSCAASGIDLSNYAMIWVRQAPGKGLEWVGIISSSDRIWYASWVKGRFTISRDNSKNTLYLQMNSLRAEDTAVYYCSRSVSNSYFDGWNLWGQGTLVTVSS VL: DIQMTQSPSSVSASVGDRVTITCQASENINSLLAWYQQKPGKAPKLLIYRASTLASGVPSRFSGSGSGTDFTLTISSLQPEDFATYYCQSNYGFTGSGAFFYGFGQGTKVEIKR",Kd,[1],0.5 nM
same,koff,[1],8.8e-05 s⁻¹
same,kon,[1],175000 M⁻¹ s⁻¹
same,Kd,[2],0.94 nM
same,koff,[2],0.000108 s⁻¹
same,kon,[2],140000 M⁻¹ s⁻¹
same,Kd,[3],0.7 nM
same,koff,[3],0.00013 s⁻¹
same,kon,[3],180000 M⁻¹ s⁻¹
same,Kd,[4],1 nM
same,koff,[4],0.00011 s⁻¹
same,kon,[4],104000 M⁻¹ s⁻¹
